The values below come from patent US20050203007A1 (REGENTS OF THE UNIVERSITY OF MICHIGAN, published 2005).

Experiment [1] addresses T1, secreted, soluble furin (human, UniProt P09958 108-715, limits assumed).
T1 construct: Secreted, soluble construct; also called human furin
Put plainly: enzyme inhibition, purified variant; Kassoc.

The next experiment deals with T2, secreted, soluble Kex2 (Saccharomyces cerevisiae, UniProt P13134 114-613, limits assumed).
T2 construct: Secreted, soluble construct; also called kexin
T2 sequence (looked up): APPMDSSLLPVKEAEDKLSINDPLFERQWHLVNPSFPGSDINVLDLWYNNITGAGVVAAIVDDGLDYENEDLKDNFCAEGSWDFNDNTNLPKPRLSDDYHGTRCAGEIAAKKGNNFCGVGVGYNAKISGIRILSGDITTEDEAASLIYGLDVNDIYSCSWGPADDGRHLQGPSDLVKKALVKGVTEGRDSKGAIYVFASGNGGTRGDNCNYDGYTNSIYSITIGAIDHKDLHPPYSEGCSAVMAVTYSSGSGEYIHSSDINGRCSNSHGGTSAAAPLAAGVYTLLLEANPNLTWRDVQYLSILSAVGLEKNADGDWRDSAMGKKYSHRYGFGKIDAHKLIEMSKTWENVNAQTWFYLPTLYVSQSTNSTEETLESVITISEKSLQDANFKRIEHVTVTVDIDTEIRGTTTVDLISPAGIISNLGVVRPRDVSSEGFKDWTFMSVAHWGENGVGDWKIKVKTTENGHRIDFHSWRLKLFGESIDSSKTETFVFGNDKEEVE
Put plainly: enzyme inhibition, purified variant; Kassoc.

A further experiment concerns the target T3, human PC7 (human, UniProt Q16549 142-667, limits assumed).
T3 sequence (looked up): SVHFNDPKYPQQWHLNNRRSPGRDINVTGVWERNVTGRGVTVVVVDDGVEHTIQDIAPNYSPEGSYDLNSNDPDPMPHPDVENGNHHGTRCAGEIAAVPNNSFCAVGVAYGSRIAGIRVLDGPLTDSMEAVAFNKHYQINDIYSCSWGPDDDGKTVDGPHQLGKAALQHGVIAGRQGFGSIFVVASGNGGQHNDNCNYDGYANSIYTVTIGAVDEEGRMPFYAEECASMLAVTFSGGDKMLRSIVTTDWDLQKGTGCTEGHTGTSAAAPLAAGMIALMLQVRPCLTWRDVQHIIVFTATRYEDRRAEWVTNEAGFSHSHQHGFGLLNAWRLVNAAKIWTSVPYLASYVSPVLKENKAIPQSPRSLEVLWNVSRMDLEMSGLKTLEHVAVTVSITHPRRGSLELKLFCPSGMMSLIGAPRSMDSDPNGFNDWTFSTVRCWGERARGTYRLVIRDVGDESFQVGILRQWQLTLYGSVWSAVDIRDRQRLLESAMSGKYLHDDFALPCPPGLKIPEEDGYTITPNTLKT
Put plainly: enzyme inhibition, purified variant; Kassoc.

Experiment [2] has as its target T1, secreted, soluble furin. Put plainly: ratio of affinities, enzyme inhibition.

T1 sequence (P09958 108-715 limits assumed): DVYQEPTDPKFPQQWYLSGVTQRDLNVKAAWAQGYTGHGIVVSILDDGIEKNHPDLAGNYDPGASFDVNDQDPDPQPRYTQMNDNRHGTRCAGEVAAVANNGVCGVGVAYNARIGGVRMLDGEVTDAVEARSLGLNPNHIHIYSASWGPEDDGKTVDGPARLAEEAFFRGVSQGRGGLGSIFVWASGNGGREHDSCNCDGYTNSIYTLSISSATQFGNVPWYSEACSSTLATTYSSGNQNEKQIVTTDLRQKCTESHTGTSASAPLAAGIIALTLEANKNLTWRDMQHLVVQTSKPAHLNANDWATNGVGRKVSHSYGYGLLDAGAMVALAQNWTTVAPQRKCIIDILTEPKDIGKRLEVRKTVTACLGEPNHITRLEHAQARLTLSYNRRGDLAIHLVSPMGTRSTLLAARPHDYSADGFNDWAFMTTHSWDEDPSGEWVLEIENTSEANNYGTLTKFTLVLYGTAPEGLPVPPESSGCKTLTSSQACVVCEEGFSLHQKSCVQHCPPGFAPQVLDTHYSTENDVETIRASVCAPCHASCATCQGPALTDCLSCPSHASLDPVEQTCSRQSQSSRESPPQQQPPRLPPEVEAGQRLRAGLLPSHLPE

B1: V33D49-R4R1-eglin (designed binder)
chain: SMGSELKSFPEVVGKTVDQAREYFTLHYPQYVVYFLPEGSRVTRDLRDNRVRVFYNPGTNVVNHVPHVG
notes: N-terminal Met removed; also called Asp49Val33-R4R1-eglin-c
On to B1, for which the Ka with secreted, soluble furin [1] was found to be 3.7e+09 M⁻¹; in the experiment with secreted, soluble Kex2, 2.4e+10 M⁻¹; with human PC7 it was 8.7e+07 M⁻¹. The “fold preference for furin over PC7” value with secreted, soluble furin [2] came out at 42 fold.
